# In paper PMC8377490:
# System: C[C@@H]1O[C@@H](O[C@H]2[C@H](O)[C@@H](O)C(O)O[C@@H]2C(=O)O)[C@H](O)[C@H](O)[C@H]1O
# Assay: purified protein
# Details: 50 mM Hepes-NaOH pH 7.0, 30 °C, 20 nM enzyme
substance,measurement,value
"FoRham1 (GA-specific L-rhamnose-α-1,4-D-glucuronate lyase) (Fusarium oxysporum)",Km,2800 ± 200 µM
same,kcat,95.5 s⁻¹
same,kcat/Km,34100 M⁻¹ s⁻¹
